In paper PMC6273887, “cDNA Isolation and Functional Characterization of UDP-D-glucuronic Acid 4-Epimerase Family from Ornithogalum caudatum” (Molecules, 2016) one finds Km data, which are given here for 1 protein.

Substrate in the series: O=C(O)[C@H]1O[C@H](OP(=O)(O)OP(=O)(O)OC[C@H]2O[C@@H](n3ccc(=O)[nH]c3=O)[C@H](O)[C@@H]2O)[C@H](O)[C@@H](O)[C@@H]1O
The series is described as follows: HPLC of UDP-GalA formation, Lineweaver-Burk plot. The series is classed as biochemical, Albuca bracteata. As to conditions: 100 mM PBS, pH 7.8, 37 °C, 20 min, 0.156-10 mM UDP-GlcA, unpurified Pichia supernatant, substrate misprinted UDP-D-Glc, UDP-GlcA in b32 and b56.

B1: OcUGlcAE3 (Albuca bracteata) (protein)
chain: MDAMISPSTPGKFKPEKPHHHLHHHHHRPLFRLQHSPLFKCGLIVVCASVVVVLLLCLAPSHPSSSSSSSSSPFAASRIERRSLSASSSSSWGGAEWEKRVRYSARIRRVGGFSVLVTGAGGFVGTHVSAALKRRGDGVLGLDCFNDYYEPSLKRARQALLDRIGVFVVEGDINDGPLLRKLFDVVPFTHVMHLAAQAGVRYAMKNPASYVHSNIAGLVTLLEACKSADPQPAVVWASSSSVYGLNTKVPFSEFHRTDRPASLYAATKKAGEEIAHTYNHIYGLSITGLRFFTVYGPWGRPDMAYFFFTNDLLNGKPITIFEGPKGESVARDFTYIDDIVQGCIGALDTAKKSTGTGGKKRGPAQLRVYNLGNTSPVPVTELVTILERLLKVKANKKVVKMPANGDVQFTHANISLAQRELGYHPTTDLKTGLKRFVRWYIEYYNPPGVASLTKKSARSNSS
notes: full-length ORF (1389 bp); 12,000 g/160,000 g lysate supernatant, unpurified
In the case of B1, the Km turned out to be 170 ± 70 µM.
